According to patent publication US20080171347A1:

Molecular target: mouse synaptosomes (synaptosome preparation carrying the BoNT/A acceptor complex)

## inactivated BoNT/A (toxoid) (from UniProt P0DPI1 2-1296)
  percent inhibition (maximum): 98%
